Laboratory results reported in publication PMC9342900, “Cryo-EM structures of the Synechocystis sp. PCC 6803 cytochrome b6f complex with and without the regulatory PetP subunit” (Biochemical Journal, 2022).
Values belong to the molecule of their own block, whether it stands above or below them.

B2: N-terminally hexa-Histidine (His)-tagged PetP (natural protein, Synechocystis sp. PCC 6803)
chain: MTIEIGQKVKVYRLRDRVSPDVVGKLGKVGVVKDFKMTDGSGIGAVVSFDDRTATWFFEDELKAI
notes: PetP, Synechocystis sp; PCC 6803, gene petP (ssr2998), codon optimized for E. coli, cloned into the NdeI and XhoI sites of pET28a(+); About 10 kDa protein; The vector pET28a(+) adds further residues between the His tag and the NdeI site; also called His-PetP; His6-tagged PetP; source: E. coli BL21(DE3), purified (HisTrap IMAC, PD-10 desalting); not shown: His6, N-terminal, kept

How the values were obtained:
[1] = biological target: T1, Synechocystis cytb6f-PetP complex (Rieske ISP subunit) (Synechocystis sp. PCC 6803, UniProt P26290); test: cryo-EM structure, […] Å; type: binding; conditions: native co-purified
T1 construct: gene petC1; same complex as P1; with Cytochrome b6; Cytochrome b6-f complex subunit 4; Cytochrome f; Cytochrome b6-f complex subunit 5; Cytochrome b6-f complex subunit 6; Cytochrome b6-f complex subunit 7; Cytochrome b6-f complex subunit 8; Cytochrome b6f regulatory subunit PetP
T1 sequence (P26290 2-180): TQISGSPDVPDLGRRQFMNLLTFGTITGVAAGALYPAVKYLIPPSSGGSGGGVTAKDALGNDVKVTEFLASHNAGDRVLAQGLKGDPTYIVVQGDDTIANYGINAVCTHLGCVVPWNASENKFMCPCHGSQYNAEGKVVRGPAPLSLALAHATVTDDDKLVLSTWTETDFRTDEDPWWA

[2] = biological target: T2, Synechocystis cytb6f-PetP complex (cytochrome b6 / subunit IV core) (Synechocystis sp. PCC 6803, UniProt P27589+Q57038); test: cryo-EM structure, […] Å; type: binding; conditions: Qn site, one PQ per monomer near heme cn; native co-purified; with PetP
T2 construct: gene petB; native dimeric complex from Synechocystis thylakoids in GDN, cytochrome f with C-terminal Ser-Ala-Strep-tag II; reconstituted with His6-PetP from E. coli; with Cytochrome f; Cytochrome b6-f complex iron-sulfur subunit; Cytochrome b6-f complex subunit 5; Cytochrome b6-f complex subunit 6; Cytochrome b6-f complex subunit 7; Cytochrome b6-f complex subunit 8; Cytochrome b6f regulatory subunit PetP

[3] = biological target: T3, Synechocystis cytb6f complex (carotenoid site) (Synechocystis sp. PCC 6803, UniProt P0DXY4+P74149+P74810+Q57038); test: cryo-EM structure; HPLC of extracted pigments; type: binding; conditions: native co-purified; 9-cis configuration suggested
T3 construct: gene petB; same complex as P1; with Cytochrome b6-f complex subunit 4; Cytochrome f; Cytochrome b6-f complex iron-sulfur subunit; Cytochrome b6-f complex subunit 8; Cytochrome b6f regulatory subunit PetP

[4] = biological target: Synechocystis sp. PCC 6803 cytochrome b6f complex with C-terminally StrepII-tagged PetA, purified dimer (Synechocystis sp. PCC 6803) (UniProt P26287); test: cryo-EM structure; cytb6f without PetP, 17 uM, in GDN; 3.15 A
[5] = biological target: Synechocystis sp. PCC 6803 cytochrome b6f complex with C-terminally StrepII-tagged PetA, purified dimer (Synechocystis sp. PCC 6803) (UniProt P26287); test: cryo-EM structure; reconstituted cytb6f-PetP complex, 20 uM, in buffer D with GDN; 2.80 A
[6] = biological target: Synechocystis sp. PCC 6803 cytochrome b6f complex with C-terminally StrepII-tagged PetA, purified dimer (Synechocystis sp. PCC 6803) (UniProt P26287); test: native gel or EMSA; BN-PAGE on NativePAGE 3-12% Bis-Tris gels, Coomassie stain; purified cytb6f and cytb6f-PetP; dimer against monomer of the complex
[7] = biological target: B2; test: cryo-EM structure; reconstituted cytb6f-PetP complex, 20 uM, in buffer D with GDN; 2.80 A; conditions: both partners purified
[8] = biological target: T4, subunit IV of the Synechocystis cytb6f complex (Synechocystis sp. PCC 6803, UniProt P27589 1-160); test: as above; conditions: both partners purified
T4 construct: subunit IV, Synechocystis sp; PCC 6803, endogenous subunit of cytb6f; Stood in the structure as a subunit of m2; also called subIV; source: Synechocystis PetA-StrepII strain, purified as part of cytb6f (StrepTrap HP, SEC)
T4 sequence: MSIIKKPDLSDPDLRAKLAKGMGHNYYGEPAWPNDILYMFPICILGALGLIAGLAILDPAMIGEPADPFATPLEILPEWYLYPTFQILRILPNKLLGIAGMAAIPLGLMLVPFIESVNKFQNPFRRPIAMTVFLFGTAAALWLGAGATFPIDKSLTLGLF

[9] = biological target: T5, cytochrome b6 subunit of the Synechocystis cytb6f complex (Synechocystis sp. PCC 6803, UniProt Q57038 1-222); test: as above; conditions: both partners purified
T5 construct: cytochrome b6, Synechocystis sp; PCC 6803, endogenous subunit of cytb6f; Stood in the structure as a subunit of m2; source: Synechocystis PetA-StrepII strain, purified as part of cytb6f (StrepTrap HP, SEC)
T5 sequence: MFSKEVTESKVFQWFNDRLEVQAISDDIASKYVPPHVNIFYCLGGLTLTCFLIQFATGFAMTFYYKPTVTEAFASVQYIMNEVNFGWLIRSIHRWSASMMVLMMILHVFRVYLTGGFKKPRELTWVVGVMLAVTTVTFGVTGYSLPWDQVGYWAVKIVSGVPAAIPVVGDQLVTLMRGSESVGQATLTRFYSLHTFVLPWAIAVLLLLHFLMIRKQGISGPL

Molecule: [S]1[Fe][S][Fe]1 [2Fe-2S cluster]
cryo-EM structure, 2.80 Å [1]: the 2Fe-2S cluster (orange Fe and yellow S)

Molecule: CC(C)=CCC/C(C)=C/CC/C(C)=C/CC/C(C)=C/CC/C(C)=C/CC/C(C)=C/CC/C(C)=C/CC/C(C)=C/CC/C(C)=C/CC1=CC(=O)C(C)=C(C)C1=O [PQ, plastoquinone]
cryo-EM structure, 2.80 Å [2]: resolves two native PQ molecules, one bound at each Qn site within the dimer

Molecule: CC1=C(/C=C/C(C)=C/C=C/C(C)=C/C=C/C=C(C)/C=C/C=C(C)/C=C/C2=C(C)C(=O)CCC2(C)C)C(C)(C)CCC1 [echinenone]
cryo-EM structure; HPLC of extracted pigments [3]: clear density for the ketone group on the end ring of echinenone

stoichiometry N [4]: 2
stoichiometry N [5]: 2
stoichiometry N [6]: 2
Molecule: Synechocystis sp. PCC 6803 cytochrome b6f complex with C-terminally StrepII-tagged PetA, purified dimer (from UniProt P26287 45-328; Q57038 1-222; P27589 1-160; P74149 1-38; P74810 1-36; P72717 1-29)

binding result [7]: binds
B1: PetG subunit of the Synechocystis cytb6f complex (natural protein, Synechocystis sp. PCC 6803)
chain: MIEPLLLGIVLGLIPVTLAGLFVAAYLQYKRGNQFNLD
notes: PetG, Synechocystis sp; PCC 6803, endogenous subunit of cytb6f; Stood in the structure as a subunit of m2; source: Synechocystis PetA-StrepII strain, purified as part of cytb6f (StrepTrap HP, SEC)

Molecule: B2
binding result [8]: binds
binding result [9]: binds
